The source of these data is the RNAGym collection of RNA variant scans (doi:10.7554/elife.80360).

First the molecules themselves.
B1: Twister Ribozyme (parent)
chain: AACACUGCCAAUGCCGGUCCCAAGCCCGGAUAAAAGUGGAGGGGGCGG

Variants of B1 are the subject of the data set. Briefly: self-cleavage, relative activity (ratio to wild type); higher = more cleavage; co-transcriptional.
As to AACACUGCCAAUGCCGGUCCCAAGCCCGAAUAAAAGUGGAGGGGGCCG, the self-cleavage came to 0.347.
Under AACACUGCCAAUGCCAGUCCCAAGCCCGGAUAAAAGUGGAGUGGGCGG stands 0.197; under AACACUGCCAAUGCCGGUCCCAAGCCCGGAUAAAAGUGUACGGGGCGG, 0.121.
Under AAAAAUGCCAAUGCCGGUCCCAAGCCCGGAUAAAAGUGGAGGGGGCGG stands 0.0993; under AACACUGCCAAUUCCGCUCCCAAGCCCGGAUAAAAGUGGAGGGGGCGG, 0.0903.
Under GACACUGCCAAUGCCGGUCCCAAGCCCGGAUAUAAGUGGAGGGGGCGG stands 0.512; under AAUACUGCCAAUGCCGGUCCCAAGCCCGGAUAAAAGUGGAGGGGGCAG, 0.361; under AACACUGCCAAUCCCGGUGCCAAGCCCGGAUAAAAGUGGAGGGGGCGG, 0.125.
Take AACACUGCCAAUGCCGGUCCCAAGCCCGGCUCAAAGUGGAGGGGGCGG: the self-cleavage came to 0.758.
Take AACACUGCCAGUGCCGGUCCCAAGCCCGGAUAAAGGUGGAGGGGGCGG: the self-cleavage was determined as 0.826.
Next, AACACUGCCAAUGCCGGUCCCAAGCCCGGAUAAAAGUGGACGGCGCGG: 0.187.
Under AACACUGCCAAUGCCGGUUCCUAGCCCGGAUAAAAGUGGAGGGGGCGG stands 0.601.
Consider AACACUGUCAAUGCCGGUCCCAAGCCCGGAUAAAAGUGAAGGGGGCGG, for which the self-cleavage came out at 0.161.
Under AACACUGCCAAUGCUGGUCCCAAGCCGGGAUAAAAGUGGAGGGGGCGG stands 0.0731.
Consider AACACUGCCAAUGCCGGUCCCAAGCCCGGAUCAAUGUGGAGGGGGCGG, for which the self-cleavage is 1.05.
Under AACACUGCCAAUGCCGGUCCCAAGCCAGGAUAAAAGAGGAGGGGGCGG stands 0.138; under AACACUGCCAAUGCCCGUCCCAAGCCCGGCUAAAAGUGGAGGGGGCGG, 0.363; under AACACUGCCAAUGCCCGUCCCAUGCCCGGAUAAAAGUGGAGGGGGCGG, 0.0704.
Next, AACACUGCCAAUGCCGGUCCCAAGCCCGGAUAAUGGUGGAGGGGGCGG: 0.191; ACCACUGCCAAUGCCGGUCCCAAGCCCGGAUAAAAAUGGAGGGGGCGG: 0.0575.
Under AACACUGCCAACGCCGGUCCCAAGCCCGGAUAAAAGCGGAGGGGGCGG stands 0.624; under AACACUGCCAAUGCCGGUCCCAAGCCCGGAUAAUAGUGGAGGGGCCGG, 0.295.
Consider AACACUGCCAAUGCCGGUCCCAAGCCCGGAUAAACGUGGGGGGGGCGG, for which the self-cleavage turned out to be 0.18.
Next, AACACUGCCAAUGCCGGUCCCAAGCCCGGAUAAACGUGGAGCGGGCGG: 0.381; AACACUGCGAAUGCCGGUCCCAAGCCCGGAUAAAAGUGGUGGGGGCGG: 0.151.
Next, AACACUGCCAAUGCCGGUCCCAAGCCCGGAUAAAAGUGGAGGCUGCGG: 0.455; AACACUGCCAAUGCCGGCCCCAAGCCCGGCUAAAAGUGGAGGGGGCGG: 0.0938.
Next, AACACUGCGAAUGCGGGUCCCAAGCCCGGAUAAAAGUGGAGGGGGCGG: 0.0512; AACACUGCCACUGCCGGUCCCAAGCGCGGAUAAAAGUGGAGGGGGCGG: 0.08.
On to AACACUGCCAAUGCCGGUCCGAAGCCCGGAUAAAAGUCGAGGGGGCGG, for which the self-cleavage was found to be 0.0966.
Next, CACACUGCCAAUGCCGGUCCCAAGCCCGGCUAAAAGUGGAGGGGGCGG: 0.199; AACACUGCCAAUGCCGGUCACACGCCCGGAUAAAAGUGGAGGGGGCGG: 0.1.
For AACACUGCCAAUGCCGAUCCCAAGCCCGGAUAAAAGUGGAGGGGGCGU, the self-cleavage was 0.603.
Under AUCACUGCCAAUGCCGGUCCCAAGCCUGGAUAAAAGUGGAGGGGGCGG stands 0.357.
With AACACUGCCAAUUCCGGUCCCAAGCCCGGAUAAAAGUGAAGGGGGCGG, the self-cleavage worked out at 0.113.
Under AACACUGCCAAUGCCGGUCCCAAACCCGGAUAAAAGUGGAGGGGGAGG stands 0.0898; under CACACUGCCAAUGCCGGUCCCAAGCCCGGACAAAAGUGGAGGGGGCGG, 0.141.
Next, AACACUGCCAAUGCCAGUCCCAAGCCCGGAUAAAAGUGGAGGGGCCGG: 0.595.
As for AACAAUGCCAAUGCCGGUCCCAAGCCCGGAUAAAAGUGGAGGGGGAGG, the self-cleavage stood at 0.652.
Under AACAAUGCCAAUGCCGGUCCCAAGCCCGGAUAAAAGUGGAGGGGGUGG stands 0.681; under AACACUGCUAAUGCGGGUCCCAAGCCCGGAUAAAAGUGGAGGGGGCGG, 0.0427.
Under AACACGUCCAAUGCCGGUCCCAAGCCCGGAUAAAAGUGGAGGGGGCGG stands 0.626.
Next, AACACUGCCAAUGCCGGUCACAAGCUCGGAUAAAAGUGGAGGGGGCGG: 0.0622; AACAUUGCCAAUGCCGGUCCCAAGCCCGGAUUAAAGUGGAGGGGGCGG: 0.812; AACACUGCCAAUGCCGUUCCGAAGCCCGGAUAAAAGUGGAGGGGGCGG: 0.064.
Consider AACACUGCCAAUACCGGUCCCAAGCGCGGAUAAAAGUGGAGGGGGCGG, for which the self-cleavage was 0.0899.
Next, AACAUUGCCAAUGCCGGGCCCAAGCCCGGAUAAAAGUGGAGGGGGCGG: 0.066; AACACUGCCAAUGCCGUUCCCAAGCCCGGCUAAAAGUGGAGGGGGCGG: 0.147.
Regarding AACACUGCCAAUGCCGGUCCCUAGGCCGGAUAAAAGUGGAGGGGGCGG, the self-cleavage worked out at 0.115.
Under AACACUGCCAAUGCCAGUCCCAAGCCCGGAUUAAAGUGGAGGGGGCGG stands 0.919; under AACACUGCCAAUGCCGGUCCCAUGCCCGGAUAAAAGUGGAGGGGGUGG, 0.731.
Under AACACUGCCAAGGCCGGUCCCAAGCCCGGAUAAAAGCGGAGGGGGCGG stands 0.593.
Next, AACACUGCCAAUGCCGGUCCCAAGCUCGGAUAAAAGUGGAUGGGGCGG: 0.145; ACCACUGCCAAUGCUGGUCCCAAGCCCGGAUAAAAGUGGAGGGGGCGG: 0.088.
